Laboratory results taken from PMC4195821 (The Journal of Cell Biology, 2014).

T1: GST-Bem1p (yeast, UniProt P29366 1-551)
T1 sequence (looked up): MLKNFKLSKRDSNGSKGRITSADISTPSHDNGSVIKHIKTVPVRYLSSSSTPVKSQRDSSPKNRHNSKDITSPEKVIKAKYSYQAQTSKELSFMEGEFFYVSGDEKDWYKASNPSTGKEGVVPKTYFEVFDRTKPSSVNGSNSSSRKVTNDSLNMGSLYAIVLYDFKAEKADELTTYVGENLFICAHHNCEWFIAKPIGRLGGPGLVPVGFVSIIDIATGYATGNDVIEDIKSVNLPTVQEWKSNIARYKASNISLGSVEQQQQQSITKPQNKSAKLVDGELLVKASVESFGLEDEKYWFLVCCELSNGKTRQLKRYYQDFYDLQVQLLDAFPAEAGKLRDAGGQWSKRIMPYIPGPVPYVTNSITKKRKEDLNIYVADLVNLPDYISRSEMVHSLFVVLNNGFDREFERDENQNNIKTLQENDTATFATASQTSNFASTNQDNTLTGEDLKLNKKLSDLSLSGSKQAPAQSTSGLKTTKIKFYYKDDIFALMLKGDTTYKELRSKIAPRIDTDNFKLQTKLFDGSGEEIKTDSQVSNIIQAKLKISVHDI


What was measured:
[1] = molecular target: GST-Exo70p (yeast, UniProt P19658 1-623); assay: pull-down
[2] = molecular target: T1, GST-Bem1p; assay: pull-down

GST-Exo70p, sequence (P19658 whole entry): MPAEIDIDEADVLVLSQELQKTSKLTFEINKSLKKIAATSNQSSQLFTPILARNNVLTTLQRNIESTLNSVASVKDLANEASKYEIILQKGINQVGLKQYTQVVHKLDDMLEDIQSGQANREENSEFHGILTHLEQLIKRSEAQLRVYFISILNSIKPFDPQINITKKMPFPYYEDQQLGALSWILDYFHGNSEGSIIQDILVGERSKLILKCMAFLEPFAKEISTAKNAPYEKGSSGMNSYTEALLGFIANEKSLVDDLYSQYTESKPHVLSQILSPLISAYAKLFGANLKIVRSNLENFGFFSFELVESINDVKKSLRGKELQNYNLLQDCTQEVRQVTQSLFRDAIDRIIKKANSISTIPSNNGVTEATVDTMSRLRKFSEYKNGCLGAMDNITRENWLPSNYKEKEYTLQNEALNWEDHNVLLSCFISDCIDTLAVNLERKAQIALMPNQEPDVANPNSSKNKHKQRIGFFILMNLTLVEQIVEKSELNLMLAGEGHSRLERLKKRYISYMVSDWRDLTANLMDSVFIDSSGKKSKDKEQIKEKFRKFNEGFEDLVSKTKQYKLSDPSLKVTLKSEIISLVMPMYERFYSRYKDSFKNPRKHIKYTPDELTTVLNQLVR

Row | Binder | Kd [1] | binding result [2]
1 | Bem1p-His6 (natural protein, yeast, UniProt P29366 1-551, looked up) MLKNFKLSKRDSNGSKGRITSADISTPSHDNGSVIKHIKTVPVRYLSSSSTPVKSQRDSSPKNRHNSKDITSPEKVIKAKYSYQAQTSKELSFMEGEFFYVSGDEKDWYKASNPSTGKEGVVPKTYFEVFDRTKPSSVNGSNSSSRKVTNDSLNMGSLYAIVLYDFKAEKADELTTYVGENLFICAHHNCEWFIAKPIGRLGGPGLVPVGFVSIIDIATGYATGNDVIEDIKSVNLPTVQEWKSNIARYKASNISLGSVEQQQQQSITKPQNKSAKLVDGELLVKASVESFGLEDEKYWFLVCCELSNGKTRQLKRYYQDFYDLQVQLLDAFPAEAGKLRDAGGQWSKRIMPYIPGPVPYVTNSITKKRKEDLNIYVADLVNLPDYISRSEMVHSLFVVLNNGFDREFERDENQNNIKTLQENDTATFATASQTSNFASTNQDNTLTGEDLKLNKKLSDLSLSGSKQAPAQSTSGLKTTKIKFYYKDDIFALMLKGDTTYKELRSKIAPRIDTDNFKLQTKLFDGSGEEIKTDSQVSNIIQAKLKISVHDI | ~260 nM | 
2 | His6-MBP-Cdc24^781-854p (domain or fragment, yeast, UniProt P11433 781-854, looked up) FTLLVEKVWNFDDLIMAINSKISNTHNNNISPITKIKYQDEDGDFVVLGSDEDWNVAKEMLAENNEKFLNIRLY |  | binds
